According to paper PMC4838380 (Nucleic Acids Research, 2016):

Molecular target: the molecule itself
Assay: SEC

B1: Endonuclease MS from Thermococcus kodakarensis (TkoEndoMS), protein encoded by TK1898 (enzyme, UniProt Q5JER9 1-252, looked up)
chain: MSKDKVTVITSPSTEELVSLVNSALLEEAMLTIFARCKVHYDGRAKSELGSGDRVIIVKPDGSFLIHQSKKREPVNWQPPGSRVRLELRENPVLVSIRRKPRETLEVELEEVYMVSVFRAEDYEELALTGSEAEMAELIFENPEVIEPGFKPLFREKAIGTGIVDVLGRDSDGNIVVLELKRRRAELHAVRQLKSYVEILREEYGDKVRGILVAPSLTSGAKRLLEKEGLEFRKLEPPKRDSKKKGRQKTLF
- stoichiometry N: 2
